Assay results taken from patent US20210206855A1 (ADAGENE, published 2021).
Residue numbers refer to the chain shown, from its start.

What was measured:
[1] = biological target: T1, full-length human CTLA4 on the cell surface (HEK293F transfectants); also activated human T cells, … (human, UniProt P16410 36-223); assay: flow cytometry on HEK293F cells transiently expressing full-length human CTLA4; Alexa Fluor 647 anti-human Fc
T1 construct: whole, on cells; used for every assay with human CTLA4 on cells; also called HEK293F/hCTLA-4; HEK293F/hCTLA4
T1 sequence (looked up): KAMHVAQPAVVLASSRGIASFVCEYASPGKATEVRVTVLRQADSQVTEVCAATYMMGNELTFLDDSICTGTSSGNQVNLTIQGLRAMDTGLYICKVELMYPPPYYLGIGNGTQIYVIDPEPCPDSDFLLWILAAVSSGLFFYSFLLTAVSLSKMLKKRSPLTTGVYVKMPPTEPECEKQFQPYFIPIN
Method: (§1) The affinities of the antibodies were also assessed against human and mouse CTLA4 transiently expressed on the surface of HEK293F cells (FIG. 2). Briefly, HEK293F cells were transfected with a plasmid expressing full-length human, monkey or mouse CTLA4 from a bicistronic IRES vector also encoding EGFP, and EGFP expression was used to identify the transfected cells. After 48 hours, the mammalian cell suspension (2×10⁵/well) was transferred to an Eppendorf tube, centrifuged, the supernatant was discarded, the cells were resuspended with 1 mL PBSA (to a density is 4×10⁶ cells/mL), and added to a 96 well plate. […] The cells were then washed once prior to analysis by flow cytometry (Beckman® CytoFlex).

[2] = biological target: T2, full-length mouse CTLA4 on the cell surface (HEK293F transfectants; also activated mouse T cells) (mouse, UniProt P09793 36-223); assay: flow cytometry on HEK293F cells transiently expressing full-length mouse CTLA4; Alexa Fluor 647 anti-human Fc
T2 construct: whole, on cells; also called mouse cell-surface exposed mouse CTLA4
Method: as §1

[3] = biological target: T3, recombinant human CTLA4 fused with human Fc and His tag (human, UniProt P16410 37-162, limits assumed, biotinylated where used in solution); assay: competition ELISA: plate-bound human CTLA4-Fc-His, biotinylated human CD80 as the blocked ligand, HRP-neutravidin
T3 construct: also called biotinylated human CTLA4 fused with human FC and His tag; recombinant human CTLA4 proteins; not shown: human Fc and His tag
T3 sequence (looked up): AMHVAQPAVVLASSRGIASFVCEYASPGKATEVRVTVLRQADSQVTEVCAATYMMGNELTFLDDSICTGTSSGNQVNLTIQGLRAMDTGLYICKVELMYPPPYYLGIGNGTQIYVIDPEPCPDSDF
Method: Plates were blocked with PBS supplemented with 2% (w/v) skim milk at 37° C. for 1 hour. […] Plates were washed four times, and 100 μL HRP-neutravidin (1:1000) was added to each well and incubated at 37° C. for 1 hour. Plates were washed as previously described, and 50 μL TMB substrate solution was added and incubated at room temperature for 5 minutes before the reaction was stopped by 50 μL sulfate acid (2M).

[4] = biological target: T4, recombinant human CTLA4-Fc (Sino Biological, 11159-H03H) (human, UniProt P16410 37-162); assay: ELISA, captured Fab
T4 construct: bought; whole entry named; Biotinylated in the yeast display assays; also called human CTLA4 fused with human FC fragment; biotinylated CTLA4-Fc; not shown: human Fc fragment
T4 sequence (looked up): T3 sequence (looked up)

[5] = biological target: T5, mouse CTLA4 antigen fused with human FC fragment (mouse, UniProt P09793 36-162, limits assumed); assay: ELISA, captured Fab
T5 construct: not shown: human Fc fragment

[6] = biological target: T6, cynomolgus monkey CTLA4 antigen fused with human FC fragment (cynomolgus monkey, UniProt G7PL88 36-161, fused to a human Fc fragment that is not in the letters); assay: ELISA, captured Fab
T6 sequence: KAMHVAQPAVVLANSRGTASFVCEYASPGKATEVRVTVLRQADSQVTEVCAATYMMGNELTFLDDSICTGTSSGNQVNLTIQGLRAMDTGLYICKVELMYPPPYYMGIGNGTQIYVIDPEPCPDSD

[7] = biological target: T4, recombinant human CTLA4-Fc (Sino …); assay: ELISA, coated human CTLA4-Fc
Method: (§2) Plates were blocked with PBS supplemented with 3% non-fat milk at 37° C. for 1 hour. After washing, 100 μL of 3-fold serial dilutions of antibodies were added to each well. After incubation at 37° C. for 1 hour, plates were washed four times, and […] conjugated anti-human IgG (Fab specific) (1:6000 dilution) was added to each well. Plates were incubated at 37° C. for 1 hour, washed four times, and then 50 μL TMB substrate solution was added to each well, and the plate was incubated at room temperature. […] The EC₅₀ was evaluated by fitting the ELISA data using the asymmetrical sigmoidal (five-parameter logistic equation) model of GraphPad Prism 6 software.
The purified activatable antibodies were treated with the proteases which recognize the cleavage sequences, and were then tested to determine whether removal of the masking peptide restored their activity.

[8] = biological target: T4, recombinant human CTLA4-Fc (Sino …); assay: ELISA, coated human CTLA4-Fc, batch 2
Method: as §2

[9] = biological target: T4, recombinant human CTLA4-Fc (Sino …); assay: ELISA, coated human CTLA4-Fc, batch 1
Method: as §2

[10] = biological target: T4, recombinant human CTLA4-Fc (Sino …); assay: ELISA, coated human CTLA4-Fc, batch 1; Data Batch 1
Method: as §2

[11] = biological target: T4, recombinant human CTLA4-Fc (Sino …); assay: ELISA, coated human CTLA4-Fc (as Example 8)
Method: as §2

[12] = biological target: T4, recombinant human CTLA4-Fc (Sino …); assay: ELISA, coated human CTLA4-Fc (as Example 8); remark: listed apart in the source
Method: as §2

[13] = biological target: T4, recombinant human CTLA4-Fc (Sino …); assay: ELISA, coated human CTLA4-Fc (as Example 8); remark: listed apart in the source
Method: as §2

B1: TY21588 (antibody, V domains shown)
VH: EVQLVESGGGLVQPGGSLRLSCAASGYSISSGYHWDWIRQAPGKGLEWVSGISGYGGSTYYADSVKGRFTISRDNSKNTLYLQLNSLRAEDTAVYYCARHSYYGSGNFDYWGQGTLVTVSS
VL: DIQLTQSPSSLSASVGDRVTITCRASESVDFFGKSFLHWYQQKPGKAPKLLIYDASNLETGVPSRFSGSGSGTDFTLTISSLQPEDFATYYCQQSYSWPPTFGQGTKVEIKR
- binding result [1]: binds
- binding result [2]: binds
- binding result [3]: binds

B2: B15732 (Fab, V domains shown)
VH: B1 VH
VL: B1 VL
notes: Fab hit from E. coli
- binding result [4]: binds
- binding result [5]: binds
- binding result [6]: binds

B3: TY22404 (antibody, IgG1, V domains shown)
VH: EVQLVESGGGLVQPGGSLRLSCAASGYSISSGYHWSWIRQAPGKGLEWLARIDWDDDKYYSTSLKSRLTISRDNSKNTLYLQLNSLRAEDTAVYYCARSYVYFDYWGQGTLVTVSS
VL: EVGSYPNPSSDCVPYYYACAYSGRSAGGGGSPLGLAGSGGSDIQLTQSPSSLSASVGDRVTITCRASQSVRGRFLAWYQQKPGKAPKLLIYDASNRATGIPSRFSGSGSGTDFTLTISSLQPEDFATYYCQQSSSWPPTFGQGTKVEIKR
notes: also called masking peptide B13197
- LogEC50 [7]: -7.01 log M
- EC50 [8]: 128 nM
- LogEC50 [8]: -6.89 log M
- EC50 [9]: 178 nM
- LogEC50 [9]: -6.75 log M
- EC50 [10]: 178 nM

B4: TY22404 (peptide as listed in Tables 26 and 29) (antibody, V domains shown)
VH: B3 VH
VL: B3 VL with S31T
notes: kept apart from m68
- EC50 [11]: 122 nM
- EC50 [12]: 68.4 nM
- EC50 [13]: 117 nM
